From PMC6954185 (Nature Communications, 2020)
One block for each molecule: values may come before it.

What was measured:
[1] = molecular target: PTP-δ_D1D2 (human), Trx-His6-tagged (human); assay: ITC; VP-ITC at 25 °C; 50 mM Tris-HCl pH 7.5, 100 mM NaCl, 1 mM EDTA, 1 mM DTT; liprin-α fragments at 200 μM injected into LAR-RPTP fragments at 20 μM; one-site binding model; N-terminal tags kept
[2] = molecular target: PTP-σ_D1D2 (human), Trx-His6-tagged (human); assay: as above
[3] = molecular target: the molecule itself; assay: cell-based or functional assay
[4] = molecular target: T1, liprin-α2_SAM123 (C-terminal SAM repeats of human liprin-α2), Trx-His6-tagged (human, UniProt O75334 866-1193); assay: ITC; VP-ITC at 25 °C; 50 mM Tris-HCl pH 7.5, 100 mM NaCl, 1 mM EDTA, 1 mM DTT; liprin-α fragments at 200 μM injected into LAR-RPTP fragments at 20 μM; one-site binding model; N-terminal tags kept; conditions: both partners purified
T1 construct: liprin-α2, human, the C-terminal three SAM domains (SAM123); source: E. coli Rosetta BL21(DE3), purified (Ni-NTA, Superdex-200); not shown: Trx, N-terminal, kept; His6, N-terminal, kept
T1 sequence (O75334 866-1193): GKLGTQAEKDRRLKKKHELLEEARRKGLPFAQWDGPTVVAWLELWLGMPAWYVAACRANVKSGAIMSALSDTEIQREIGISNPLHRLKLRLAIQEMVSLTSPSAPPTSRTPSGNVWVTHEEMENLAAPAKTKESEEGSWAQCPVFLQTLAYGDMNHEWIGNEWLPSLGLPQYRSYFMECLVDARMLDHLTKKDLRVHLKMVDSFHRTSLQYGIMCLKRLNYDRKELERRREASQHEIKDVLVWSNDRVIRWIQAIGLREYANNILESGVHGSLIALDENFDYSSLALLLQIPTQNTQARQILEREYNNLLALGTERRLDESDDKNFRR

Sequence of PTP-δ_D1D2 (human), Trx-His6-tagged (human) (P23468 1357-1912, stated change not applied): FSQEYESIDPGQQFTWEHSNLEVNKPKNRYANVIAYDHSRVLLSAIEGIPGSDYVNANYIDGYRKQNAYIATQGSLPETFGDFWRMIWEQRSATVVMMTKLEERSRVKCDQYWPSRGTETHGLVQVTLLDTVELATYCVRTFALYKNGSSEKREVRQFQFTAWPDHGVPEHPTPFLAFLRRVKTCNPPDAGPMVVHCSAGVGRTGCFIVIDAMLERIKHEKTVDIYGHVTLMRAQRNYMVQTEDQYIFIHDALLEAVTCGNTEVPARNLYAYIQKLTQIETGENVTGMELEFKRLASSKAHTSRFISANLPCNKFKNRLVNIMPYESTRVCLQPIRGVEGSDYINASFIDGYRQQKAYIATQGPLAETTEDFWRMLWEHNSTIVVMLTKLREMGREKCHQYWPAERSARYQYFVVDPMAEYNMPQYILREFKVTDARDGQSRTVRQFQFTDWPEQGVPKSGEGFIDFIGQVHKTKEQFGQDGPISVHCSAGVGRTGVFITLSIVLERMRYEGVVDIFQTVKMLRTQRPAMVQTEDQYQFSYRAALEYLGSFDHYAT
Sequence of PTP-σ_D1D2 (human), Trx-His6-tagged (human) (Q13332 1393-1948): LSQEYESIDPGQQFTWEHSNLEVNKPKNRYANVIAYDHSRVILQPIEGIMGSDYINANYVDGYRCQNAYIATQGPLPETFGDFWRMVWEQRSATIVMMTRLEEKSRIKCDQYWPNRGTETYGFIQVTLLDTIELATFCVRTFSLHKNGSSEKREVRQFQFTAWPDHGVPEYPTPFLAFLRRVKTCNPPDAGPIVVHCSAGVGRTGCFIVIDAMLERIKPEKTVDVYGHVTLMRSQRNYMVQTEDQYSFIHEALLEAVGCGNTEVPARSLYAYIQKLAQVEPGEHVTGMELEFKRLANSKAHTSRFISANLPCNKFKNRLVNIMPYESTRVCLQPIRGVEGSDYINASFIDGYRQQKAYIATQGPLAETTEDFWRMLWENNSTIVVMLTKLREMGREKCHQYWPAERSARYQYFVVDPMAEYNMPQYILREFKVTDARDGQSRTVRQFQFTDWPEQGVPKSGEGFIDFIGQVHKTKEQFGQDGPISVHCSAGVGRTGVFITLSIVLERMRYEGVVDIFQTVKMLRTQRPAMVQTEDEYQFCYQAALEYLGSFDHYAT

Kd [1]: 6.4 µM
Kd [2]: 2.4 µM
Molecule: α2_SAM123ΔInsertion (liprin-α2_SAM123 with the insertion loop connecting SAM1 and SAM2 deleted) (from UniProt O75334 866-1193) (domain or fragment)

B1: LAR_D1D2 L1539C/T1593C double-cysteine mutant (domain or fragment, human)
chain: IPITDLADNIERLKANDGLKFSQEYESIDPGQQFTWENSNLEVNKPKNRYANVIAYDHSRVILTSIDGVPGSDYINANYIDGYRKQNAYIATQGPLPETMGDFWRMVWEQRTATVVMMTRLEEKSRVKCDQYWPARGTETCGLIQVTLLDTVELATYTVRTFALHKSGSSEKRELRQFQFMAWPDHGVPEYPTPILAFLRRVKACNPCDAGPMVVHCSAGVGRTGCFIVIDAMLERMKHEKTVDIYGHVTCMRSQRNYMVQCEDQYVFIHEALLEAATCGHTEVPARNLYAHIQKLGQVPPGESVTAMELEFKLLASSKAHTSRFISANLPCNKFKNRLVNIMPYELTRVCLQPIRGVEGSDYINASFLDGYRQQKAYIATQGPLAESTEDFWRMLWEHNSTIIVMLTKLREMGREKCHQYWPAERSARYQYFVVDPMAEYNMPQYILREFKVTDARDGQSRTIRQFQFTDWPEQGVPKTGEGFIDFIGQVHKTKEQFGQDGPITVHCSAGVGRTGVFITLSIVLERMRYEGVVDMFQTVKTLRTQRPAMVQTEDQYQLCYRAALEYLGSFDHYAT
modifications: intermolecular disulfide bridges between the introduced cysteines (without reducing reagents)
in vitro phosphatase activity of the LAR_D1D2 dimer relative to the monomer fraction, with 2 mM DTT in the reaction buffer [3]: ~80%
in vitro phosphatase activity of the disulfide-linked LAR_D1D2 dimer relative to the monomeric mutant, reaction buffer without DTT [3]: ~40%

Kd [4]: 14 ± 1 µM
B2: LAR_D2 (D2 domain of human LAR), His6-SUMO-tagged (domain or fragment, UniProt P10586 1620-1907, looked up)
chain: LYAHIQKLGQVPPGESVTAMELEFKLLASSKAHTSRFISANLPCNKFKNRLVNIMPYELTRVCLQPIRGVEGSDYINASFLDGYRQQKAYIATQGPLAESTEDFWRMLWEHNSTIIVMLTKLREMGREKCHQYWPAERSARYQYFVVDPMAEYNMPQYILREFKVTDARDGQSRTIRQFQFTDWPEQGVPKTGEGFIDFIGQVHKTKEQFGQDGPITVHCSAGVGRTGVFITLSIVLERMRYEGVVDMFQTVKTLRTQRPAMVQTEDQYQLCYRAALEYLGSFDHYAT
notes: also called D2 domain alone; source: E. coli Rosetta BL21(DE3), purified (Ni-NTA, Superdex-200); not shown: His6, N-terminal, kept; SUMO, N-terminal, kept
